Blank lines part the entries; values can stand above or below the binder they belong to.
Tests used:
[1] = molecular target: T1, human fibrinogen (human, UniProt P02671 20-629; P02675 31-491; P02679 27-437, limits assumed); test: ELISA, hybridoma culture supernatant (undiluted) on fibrinogen plate; selection of the clone
T1 construct: Bought (Sigma), coated on 96-well plates at 50 ug/ml in TBS pH 8.5; also called fibrinogen (Sigma) plate; fibrinogen (2)
T1 sequence (looked up) 1: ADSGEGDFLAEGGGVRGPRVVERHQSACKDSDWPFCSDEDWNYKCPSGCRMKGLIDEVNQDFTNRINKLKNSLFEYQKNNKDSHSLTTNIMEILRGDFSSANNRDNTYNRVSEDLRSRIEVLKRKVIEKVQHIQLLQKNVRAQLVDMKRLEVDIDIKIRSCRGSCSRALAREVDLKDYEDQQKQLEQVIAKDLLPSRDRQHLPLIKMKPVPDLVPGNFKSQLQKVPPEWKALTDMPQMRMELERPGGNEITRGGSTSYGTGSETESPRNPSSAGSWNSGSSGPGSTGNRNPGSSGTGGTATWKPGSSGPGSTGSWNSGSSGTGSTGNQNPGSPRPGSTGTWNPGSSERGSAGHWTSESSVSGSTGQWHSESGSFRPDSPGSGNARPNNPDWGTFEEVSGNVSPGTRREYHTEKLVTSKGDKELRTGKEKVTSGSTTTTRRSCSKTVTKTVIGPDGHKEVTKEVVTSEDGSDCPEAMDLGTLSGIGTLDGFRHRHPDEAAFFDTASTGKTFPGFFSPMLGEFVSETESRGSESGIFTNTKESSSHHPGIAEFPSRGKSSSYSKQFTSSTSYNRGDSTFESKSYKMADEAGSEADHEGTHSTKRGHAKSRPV
T1 sequence (looked up) 2: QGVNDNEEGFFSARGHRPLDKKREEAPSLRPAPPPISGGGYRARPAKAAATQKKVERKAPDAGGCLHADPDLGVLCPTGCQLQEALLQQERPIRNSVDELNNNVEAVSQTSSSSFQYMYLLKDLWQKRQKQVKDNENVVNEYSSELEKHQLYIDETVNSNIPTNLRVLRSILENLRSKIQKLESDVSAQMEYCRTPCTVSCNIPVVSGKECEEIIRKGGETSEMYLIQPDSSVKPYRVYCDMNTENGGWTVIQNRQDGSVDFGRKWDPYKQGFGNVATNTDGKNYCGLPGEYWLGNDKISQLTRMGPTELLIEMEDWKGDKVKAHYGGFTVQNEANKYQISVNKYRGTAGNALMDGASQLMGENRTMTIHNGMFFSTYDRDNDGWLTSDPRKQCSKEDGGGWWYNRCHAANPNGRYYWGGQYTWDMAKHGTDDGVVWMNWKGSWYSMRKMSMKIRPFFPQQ
T1 sequence (looked up) 3: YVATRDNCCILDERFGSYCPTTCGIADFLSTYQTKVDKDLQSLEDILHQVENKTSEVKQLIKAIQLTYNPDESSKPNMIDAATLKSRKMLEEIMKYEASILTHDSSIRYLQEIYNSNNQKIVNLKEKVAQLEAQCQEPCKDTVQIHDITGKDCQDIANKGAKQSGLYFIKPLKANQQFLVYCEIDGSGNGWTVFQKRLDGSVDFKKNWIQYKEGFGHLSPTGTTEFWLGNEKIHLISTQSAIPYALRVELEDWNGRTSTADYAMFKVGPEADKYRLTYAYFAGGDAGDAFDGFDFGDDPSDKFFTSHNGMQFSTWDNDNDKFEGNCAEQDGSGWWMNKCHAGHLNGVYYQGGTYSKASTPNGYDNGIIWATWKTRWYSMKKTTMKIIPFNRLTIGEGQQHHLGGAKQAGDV

[2] = molecular target: T2, mouse fibrinogen (mouse, UniProt E9PV24 20-557; Q8K0E8 20-481; Q8VCM7 26-436, limits assumed); test: ELISA, hybridoma 102-10 culture supernatant on fibrinogen plate (Fig. 1C)
T2 construct: also called fibrinogen (4)
T2 sequence (looked up) 1: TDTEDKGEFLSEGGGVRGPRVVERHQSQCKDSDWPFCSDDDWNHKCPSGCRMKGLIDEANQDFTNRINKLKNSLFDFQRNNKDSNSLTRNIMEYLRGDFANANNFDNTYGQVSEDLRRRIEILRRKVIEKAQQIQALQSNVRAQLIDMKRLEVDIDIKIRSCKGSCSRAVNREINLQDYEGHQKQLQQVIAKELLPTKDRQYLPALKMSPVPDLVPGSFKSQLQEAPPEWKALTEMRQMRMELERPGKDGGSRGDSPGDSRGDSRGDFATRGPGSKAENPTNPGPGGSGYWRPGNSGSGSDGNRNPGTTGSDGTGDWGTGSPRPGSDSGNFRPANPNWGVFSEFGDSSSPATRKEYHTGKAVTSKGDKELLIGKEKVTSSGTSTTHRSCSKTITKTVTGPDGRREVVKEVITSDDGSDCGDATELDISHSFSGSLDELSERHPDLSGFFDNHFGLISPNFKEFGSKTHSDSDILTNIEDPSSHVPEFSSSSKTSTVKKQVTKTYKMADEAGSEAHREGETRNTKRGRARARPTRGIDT
T2 sequence (looked up) 2: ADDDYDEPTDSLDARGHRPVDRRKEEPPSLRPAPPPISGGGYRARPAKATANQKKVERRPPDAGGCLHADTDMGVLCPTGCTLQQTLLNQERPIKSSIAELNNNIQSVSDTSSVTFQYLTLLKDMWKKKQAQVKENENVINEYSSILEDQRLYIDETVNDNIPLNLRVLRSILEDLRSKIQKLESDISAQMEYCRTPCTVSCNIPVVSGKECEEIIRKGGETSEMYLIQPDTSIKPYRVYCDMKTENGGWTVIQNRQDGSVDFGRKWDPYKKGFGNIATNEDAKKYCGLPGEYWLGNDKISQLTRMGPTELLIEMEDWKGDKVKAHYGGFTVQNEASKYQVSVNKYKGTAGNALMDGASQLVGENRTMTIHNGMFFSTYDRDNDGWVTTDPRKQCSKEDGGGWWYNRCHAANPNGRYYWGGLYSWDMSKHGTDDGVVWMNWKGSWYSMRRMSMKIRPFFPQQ
T2 sequence (looked up) 3: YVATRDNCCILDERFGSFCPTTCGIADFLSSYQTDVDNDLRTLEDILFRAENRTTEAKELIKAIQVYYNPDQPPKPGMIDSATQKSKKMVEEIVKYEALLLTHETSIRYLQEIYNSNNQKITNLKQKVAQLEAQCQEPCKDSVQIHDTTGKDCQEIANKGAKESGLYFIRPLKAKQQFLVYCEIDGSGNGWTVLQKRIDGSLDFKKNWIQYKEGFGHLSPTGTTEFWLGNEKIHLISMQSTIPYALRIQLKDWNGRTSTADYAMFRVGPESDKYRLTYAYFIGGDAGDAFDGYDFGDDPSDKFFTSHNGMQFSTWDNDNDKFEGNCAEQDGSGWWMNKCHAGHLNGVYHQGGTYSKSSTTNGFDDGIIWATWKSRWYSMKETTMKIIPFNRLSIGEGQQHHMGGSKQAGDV

[3] = molecular target: T3, human fibrin (human, UniProt P02671 36-629; P02675 45-491; P02679 27-437, limits assumed); test: ELISA, hybridoma culture supernatant (undiluted) on fibrin plate; selection of the clone
T3 construct: Made on the plate: fibrinogen (Sigma) coated at 50 ug/ml, dried, then treated with 10 NIH U/ml human thrombin with 10 mM CaCl2 and 7 mM L-cysteine; also called fibrin plate; fibrin (1)
T3 sequence (looked up) 1: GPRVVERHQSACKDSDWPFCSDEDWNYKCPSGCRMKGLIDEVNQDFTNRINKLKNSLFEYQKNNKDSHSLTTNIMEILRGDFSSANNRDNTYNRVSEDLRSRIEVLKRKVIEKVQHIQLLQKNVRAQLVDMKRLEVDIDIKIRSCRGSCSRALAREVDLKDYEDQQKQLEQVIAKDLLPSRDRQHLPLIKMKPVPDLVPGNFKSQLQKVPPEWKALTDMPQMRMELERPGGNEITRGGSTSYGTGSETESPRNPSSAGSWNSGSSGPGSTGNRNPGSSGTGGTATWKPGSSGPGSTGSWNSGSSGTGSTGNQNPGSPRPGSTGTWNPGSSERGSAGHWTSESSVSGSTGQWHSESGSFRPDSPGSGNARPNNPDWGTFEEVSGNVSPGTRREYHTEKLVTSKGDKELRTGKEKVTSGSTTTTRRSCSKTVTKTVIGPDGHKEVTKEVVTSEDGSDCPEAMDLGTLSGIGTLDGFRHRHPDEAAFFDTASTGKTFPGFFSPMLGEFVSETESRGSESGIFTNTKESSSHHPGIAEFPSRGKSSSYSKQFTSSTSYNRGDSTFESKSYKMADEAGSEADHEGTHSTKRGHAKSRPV
T3 sequence (looked up) 2: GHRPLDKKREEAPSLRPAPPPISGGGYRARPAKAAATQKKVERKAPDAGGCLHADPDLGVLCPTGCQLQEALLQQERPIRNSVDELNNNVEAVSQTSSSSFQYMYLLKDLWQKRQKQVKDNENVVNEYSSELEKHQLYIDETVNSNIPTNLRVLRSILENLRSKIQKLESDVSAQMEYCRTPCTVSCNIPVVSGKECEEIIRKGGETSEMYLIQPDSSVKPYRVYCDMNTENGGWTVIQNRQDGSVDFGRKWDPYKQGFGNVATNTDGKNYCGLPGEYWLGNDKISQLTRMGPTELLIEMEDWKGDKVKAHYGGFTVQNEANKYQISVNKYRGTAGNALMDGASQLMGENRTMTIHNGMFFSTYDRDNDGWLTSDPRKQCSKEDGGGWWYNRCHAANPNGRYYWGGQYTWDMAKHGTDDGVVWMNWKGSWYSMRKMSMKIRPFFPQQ
T3 sequence (looked up) 3: T1 sequence (looked up) 3

[4] = molecular target: T3, human fibrin; test: ELISA, purified chimeric antibody on fibrin plate (Fig. 3)
[5] = molecular target: T1, human fibrinogen; test: ELISA, purified chimeric antibody on fibrinogen plate (Fig. 3)
[6] = molecular target: T2, mouse fibrinogen; test: as above

binding result [1]: no binding
binding result [2]: no binding
binding result [3]: binds
B1: mouse anti-fibrin IgM antibody produced by hybridoma cell line 102-10 (accession number NITE BP-923) (antibody, V domains shown)
VH: QIQLVQSGPELKKPGETVKISCKASGYTFTNYGMNWVKQAPGKGLKWMGWINTYTGEATYADDFKGRFAFSLETSANTAYVQINNLKNEDTATYFCARLMDYWGQGTSVTVSS
VL: DIQMTQSPSSLSASLGGKVTITCKASQDINKYIAWFQHKPGKGPRLLIHYTSTLQPGIPSRFSGSGSGRDYSFSISNLEPEDLATYYCLQYDNLTWTFGGGTKLEIK
notes: Mouse IgM; Tested as hybridoma culture supernatant in ELISA; also called clone 102-10; mouse IgM antibody

binding result [4]: binds
binding result [5]: no binding
binding result [6]: no binding
B2: human type anti-fibrin chimeric antibody (human type IgG clone 102-10Hu) (antibody, V domains shown)
VH: B1 VH
VL: B1 VL
notes: made in CHO cells, purified on Protein G and hydroxyapatite; They may include a leader peptide; no cleavage site is stated; also called human chimeric antibody; human chimeric anti-fibrin IgG

Source: patent WO2011158973A1 (dated 2011)
